doi:10.1101/2025.01.09.632221 (bioRxiv, 2025)
Values belong to the molecule of their own block, whether it stands above or below them.

Legend:
[1] = biological target: sHcp-His6 (Bacteroides fragilis NCTC9343); experiment: SEC
[2] = biological target: sHcp-His6 (Bacteroides fragilis NCTC9343); experiment: SDS-PAGE
Hcp2-His6 = biological target: T1, Hcp2-His6 (Bacteroides fragilis NCTC9343, UniProt A0A380Z0E1 1-135); experiment: pull-down
T1 sequence (looked up): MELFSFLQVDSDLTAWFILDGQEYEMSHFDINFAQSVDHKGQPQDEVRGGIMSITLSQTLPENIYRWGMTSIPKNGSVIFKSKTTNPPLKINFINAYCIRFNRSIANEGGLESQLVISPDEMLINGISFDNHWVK

crystal structure = biological target: the molecule itself; experiment: crystal structure

- stoichiometry N [1]: 6
- stoichiometry N [2]: 3
Molecule: sHcp-His6 (natural protein)

- stoichiometry N (Hcp2-His6): 2 Hcp1 per Hcp2 (printed as the ratio 4:2)
B1: Hcp1, untagged, co-expressed in E. coli BL21(DE3) (natural protein, Bacteroides fragilis NCTC9343, UniProt Q5LDT5 1-142, looked up)
chain: MFGHKSFLRIGALGDSSISGLYKDSYELENCHFSFNQGTNTDGKPQTDVRGGTLYLTYAGLPQDDMLRWILNSKKYEDGAIVICDDSDEPLEKILFEQAACTGLNIEYTQKGKAYIHTKIILQVRKIKVGETTFENRWTINE

B2: C-terminal 6His-tagged Se-Met sHcp protein (natural protein, Bacteroides fragilis NCTC9343)
chain: MAFRATLSFAGKEFDVLDCTYSLKRDVDSKGRPSSNIYGGQIRLHVESTDDTSILENMTNQFKPHSGSIVFKKGDEEAKMKELTWENGYITEFTENIDIVGSQPMTITFVVSAQVIKIGGAQFEQNWPK
modifications: selenomethionine in place of methionine
- stoichiometry N (crystal structure): 6
